Laboratory results reported in article PMC10786891, “Massively parallel profiling of RNA-targeting CRISPR-Cas13d”.

T1: EsCas13d, nuclease-dead (Eubacterium siraeum, UniProt B0MS50, R295A;H300A;R849A;H854A)
T1 sequence: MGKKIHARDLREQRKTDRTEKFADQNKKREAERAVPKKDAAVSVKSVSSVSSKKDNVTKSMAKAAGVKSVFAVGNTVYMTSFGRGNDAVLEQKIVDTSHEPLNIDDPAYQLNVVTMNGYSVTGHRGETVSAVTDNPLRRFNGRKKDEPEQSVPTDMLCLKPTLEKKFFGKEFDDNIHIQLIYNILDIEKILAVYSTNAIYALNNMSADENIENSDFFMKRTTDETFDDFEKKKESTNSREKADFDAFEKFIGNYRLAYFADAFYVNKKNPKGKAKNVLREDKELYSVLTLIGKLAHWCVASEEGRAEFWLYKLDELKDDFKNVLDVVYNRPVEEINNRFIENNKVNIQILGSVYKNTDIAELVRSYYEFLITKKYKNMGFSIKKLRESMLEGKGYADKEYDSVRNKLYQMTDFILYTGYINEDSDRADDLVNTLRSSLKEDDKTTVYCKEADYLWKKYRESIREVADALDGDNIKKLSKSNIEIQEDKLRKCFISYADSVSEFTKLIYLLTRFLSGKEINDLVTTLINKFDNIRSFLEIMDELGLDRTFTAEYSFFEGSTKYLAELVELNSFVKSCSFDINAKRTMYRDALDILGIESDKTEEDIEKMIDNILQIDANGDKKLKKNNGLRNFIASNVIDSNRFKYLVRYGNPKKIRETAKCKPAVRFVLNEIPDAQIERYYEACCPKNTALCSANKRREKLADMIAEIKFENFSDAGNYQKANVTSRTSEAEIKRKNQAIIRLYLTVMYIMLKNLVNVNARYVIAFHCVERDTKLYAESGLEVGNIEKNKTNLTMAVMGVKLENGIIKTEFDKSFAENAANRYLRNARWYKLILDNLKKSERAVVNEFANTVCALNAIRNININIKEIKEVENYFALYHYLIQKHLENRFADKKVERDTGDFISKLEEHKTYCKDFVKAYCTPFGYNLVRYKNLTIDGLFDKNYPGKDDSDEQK


Molecular target: T1, EsCas13d, nuclease-dead
Experiment: crRNA (strand 1, pre-loaded); Mg2+; 40 mM Tris-HCl pH 7.5, 150 mM NaCl, 6 mM MgCl2, 1 mM DTT, 0.1% Tween-20, 0.2 mg/ml BSA; 25 C; 10 min per concentration, then washed
Settings: tags: His6-TwinStrep-SUMO cleaved; N-terminal SNAP kept (SNAP-Surface 488); label: 3' end held by stalled T7 RNA polymerase

Binder	Kd [nM]
target 1 G5C,U8G (mixed) RNA 1: CACCCGUGCAAAAAUGCAGGGGUCUAAAACUGAGCGGAUAACCUCUCUAUGG RNA 2: GGGAAUGGAUCCACAUCUACGAAUUCGUACCAUAGAGAGGUUAGCCCCUCACCGAGAUCGGAAGAGCACACGU	35 ± 4
target 1 insA 3' of 21,insG 3' of 10 (mixed) RNA 1: CACCCGUGCAAAAAUGCAGGGGUCUAAAACUGAGCGGAUAACCUCUCUAUGG RNA 2: GGGAAUGGAUCCACAUCUACGAAUUCGUACCAAUAGAGAGGUUGAUCCGCUCACCGAGAUCGGAAGAGCACACGU	59 ± 24
target 1 insU 3' of 15,insA 3' of 5 (mixed) RNA 1: CACCCGUGCAAAAAUGCAGGGGUCUAAAACUGAGCGGAUAACCUCUCUAUGG RNA 2: GGGAAUGGAUCCACAUCUACGAAUUCGUACCAUAGAGUAGGUUAUCCGACUCACCGAGAUCGGAAGAGCACACGU	21.7 ± 2.1
target 1 insG 3' of 22,insG 3' of 14 (mixed) RNA 1: CACCCGUGCAAAAAUGCAGGGGUCUAAAACUGAGCGGAUAACCUCUCUAUGG RNA 2: GGGAAUGGAUCCACAUCUACGAAUUCGUACGCAUAGAGAGGGUUAUCCGCUCACCGAGAUCGGAAGAGCACACGU	28.6 ± 3.5
target 1 C6G,U11A (mixed) RNA 1: CACCCGUGCAAAAAUGCAGGGGUCUAAAACUGAGCGGAUAACCUCUCUAUGG RNA 2: GGGAAUGGAUCCACAUCUACGAAUUCGUACCAUAGAGAGGAUAUCGGCUCACCGAGAUCGGAAGAGCACACGU	25.4 ± 0.9
target 1 insA 3' of 10,insU 3' of 4 (mixed) RNA 1: CACCCGUGCAAAAAUGCAGGGGUCUAAAACUGAGCGGAUAACCUCUCUAUGG RNA 2: GGGAAUGGAUCCACAUCUACGAAUUCGUACCAUAGAGAGGUUAAUCCGCUUCACCGAGAUCGGAAGAGCACACGU	9.3 ± 0.6
target 1 del13,del16 (mixed) RNA 1: CACCCGUGCAAAAAUGCAGGGGUCUAAAACUGAGCGGAUAACCUCUCUAUGG RNA 2: GGGAAUGGAUCCACAUCUACGAAUUCGUACCAUAGGAGUUAUCCGCUCACCGAGAUCGGAAGAGCACACGU	94 ± 28
target 1 U3G,C21U (mixed) RNA 1: CACCCGUGCAAAAAUGCAGGGGUCUAAAACUGAGCGGAUAACCUCUCUAUGG RNA 2: GGGAAUGGAUCCACAUCUACGAAUUCGUACUAUAGAGAGGUUAUCCGCGCACCGAGAUCGGAAGAGCACACGU	11 ± 1.2
target 1 insU 3' of 22,insC 3' of 13 (mixed) RNA 1: CACCCGUGCAAAAAUGCAGGGGUCUAAAACUGAGCGGAUAACCUCUCUAUGG RNA 2: GGGAAUGGAUCCACAUCUACGAAUUCGUACUCAUAGAGAGCGUUAUCCGCUCACCGAGAUCGGAAGAGCACACGU	88 ± 32
target 1 insA 3' of 12,insA 3' of 6 (mixed) RNA 1: CACCCGUGCAAAAAUGCAGGGGUCUAAAACUGAGCGGAUAACCUCUCUAUGG RNA 2: GGGAAUGGAUCCACAUCUACGAAUUCGUACCAUAGAGAGGAUUAUCCAGCUCACCGAGAUCGGAAGAGCACACGU	37.3 ± 3
target 1 insG 3' of 21,insG 3' of 2 (mixed) RNA 1: CACCCGUGCAAAAAUGCAGGGGUCUAAAACUGAGCGGAUAACCUCUCUAUGG RNA 2: GGGAAUGGAUCCACAUCUACGAAUUCGUACCGAUAGAGAGGUUAUCCGCUCGACCGAGAUCGGAAGAGCACACGU	61 ± 13
target 1 C2G,U10A (mixed) RNA 1: CACCCGUGCAAAAAUGCAGGGGUCUAAAACUGAGCGGAUAACCUCUCUAUGG RNA 2: GGGAAUGGAUCCACAUCUACGAAUUCGUACCAUAGAGAGGUAAUCCGCUGACCGAGAUCGGAAGAGCACACGU	12.7 ± 1.3
target 1 insC 3' of 13,insG 3' of 8 (mixed) RNA 1: CACCCGUGCAAAAAUGCAGGGGUCUAAAACUGAGCGGAUAACCUCUCUAUGG RNA 2: GGGAAUGGAUCCACAUCUACGAAUUCGUACCAUAGAGAGCGUUAUGCCGCUCACCGAGAUCGGAAGAGCACACGU	13.9 ± 1.5
target 1 insG 3' of 10,insC 3' of 3 (mixed) RNA 1: CACCCGUGCAAAAAUGCAGGGGUCUAAAACUGAGCGGAUAACCUCUCUAUGG RNA 2: GGGAAUGGAUCCACAUCUACGAAUUCGUACCAUAGAGAGGUUGAUCCGCUCCACCGAGAUCGGAAGAGCACACGU	26.7 ± 1.9
target 1 insU 3' of 4,insG 3' of 4 (mixed) RNA 1: CACCCGUGCAAAAAUGCAGGGGUCUAAAACUGAGCGGAUAACCUCUCUAUGG RNA 2: GGGAAUGGAUCCACAUCUACGAAUUCGUACCAUAGAGAGGUUAUCCGCUGUCACCGAGAUCGGAAGAGCACACGU	8.9 ± 0.8
target 1 del7,del20 (mixed) RNA 1: CACCCGUGCAAAAAUGCAGGGGUCUAAAACUGAGCGGAUAACCUCUCUAUGG RNA 2: GGGAAUGGAUCCACAUCUACGAAUUCGUACCUAGAGAGGUUAUCGCUCACCGAGAUCGGAAGAGCACACGU	39 ± 4
target 1 U3G,U11A (mixed) RNA 1: CACCCGUGCAAAAAUGCAGGGGUCUAAAACUGAGCGGAUAACCUCUCUAUGG RNA 2: GGGAAUGGAUCCACAUCUACGAAUUCGUACCAUAGAGAGGAUAUCCGCGCACCGAGAUCGGAAGAGCACACGU	14.2 ± 1.3
target 1 insA 3' of 11,insC 3' of 10 (mixed) RNA 1: CACCCGUGCAAAAAUGCAGGGGUCUAAAACUGAGCGGAUAACCUCUCUAUGG RNA 2: GGGAAUGGAUCCACAUCUACGAAUUCGUACCAUAGAGAGGUAUCAUCCGCUCACCGAGAUCGGAAGAGCACACGU	14.6 ± 0.7
target 1 insU 3' of 22,insG 3' of 19 (mixed) RNA 1: CACCCGUGCAAAAAUGCAGGGGUCUAAAACUGAGCGGAUAACCUCUCUAUGG RNA 2: GGGAAUGGAUCCACAUCUACGAAUUCGUACUCAUGAGAGAGGUUAUCCGCUCACCGAGAUCGGAAGAGCACACGU	86 ± 19
target 1 A9U,A20C (mixed) RNA 1: CACCCGUGCAAAAAUGCAGGGGUCUAAAACUGAGCGGAUAACCUCUCUAUGG RNA 2: GGGAAUGGAUCCACAUCUACGAAUUCGUACCCUAGAGAGGUUUUCCGCUCACCGAGAUCGGAAGAGCACACGU	~53
target 1 insA 3' of 19,insG 3' of 14 (mixed) RNA 1: CACCCGUGCAAAAAUGCAGGGGUCUAAAACUGAGCGGAUAACCUCUCUAUGG RNA 2: GGGAAUGGAUCCACAUCUACGAAUUCGUACCAUAAGAGAGGGUUAUCCGCUCACCGAGAUCGGAAGAGCACACGU	28.6 ± 1.5
target 1 C7A,C22A (mixed) RNA 1: CACCCGUGCAAAAAUGCAGGGGUCUAAAACUGAGCGGAUAACCUCUCUAUGG RNA 2: GGGAAUGGAUCCACAUCUACGAAUUCGUAACAUAGAGAGGUUAUACGCUCACCGAGAUCGGAAGAGCACACGU	12.1 ± 0.5
target 1 insU 3' of 22,insU 3' of 2 (mixed) RNA 1: CACCCGUGCAAAAAUGCAGGGGUCUAAAACUGAGCGGAUAACCUCUCUAUGG RNA 2: GGGAAUGGAUCCACAUCUACGAAUUCGUACUCAUAGAGAGGUUAUCCGCUCUACCGAGAUCGGAAGAGCACACGU	35.9 ± 2.9
target 1 insC 3' of 10,insU 3' of 7 (mixed) RNA 1: CACCCGUGCAAAAAUGCAGGGGUCUAAAACUGAGCGGAUAACCUCUCUAUGG RNA 2: GGGAAUGGAUCCACAUCUACGAAUUCGUACCAUAGAGAGGUUCAUCUCGCUCACCGAGAUCGGAAGAGCACACGU	19.2 ± 1.3
target 1 U8A,G17A (mixed) RNA 1: CACCCGUGCAAAAAUGCAGGGGUCUAAAACUGAGCGGAUAACCUCUCUAUGG RNA 2: GGGAAUGGAUCCACAUCUACGAAUUCGUACCAUAAAGAGGUUAACCGCUCACCGAGAUCGGAAGAGCACACGU	92 ± 17
target 1 U8G,U19G (mixed) RNA 1: CACCCGUGCAAAAAUGCAGGGGUCUAAAACUGAGCGGAUAACCUCUCUAUGG RNA 2: GGGAAUGGAUCCACAUCUACGAAUUCGUACCAGAGAGAGGUUAGCCGCUCACCGAGAUCGGAAGAGCACACGU	79 ± 15
target 1 G12C,G15U (mixed) RNA 1: CACCCGUGCAAAAAUGCAGGGGUCUAAAACUGAGCGGAUAACCUCUCUAUGG RNA 2: GGGAAUGGAUCCACAUCUACGAAUUCGUACCAUAGAUAGCUUAUCCGCUCACCGAGAUCGGAAGAGCACACGU	~60
target 1 del8,del15 (mixed) RNA 1: CACCCGUGCAAAAAUGCAGGGGUCUAAAACUGAGCGGAUAACCUCUCUAUGG RNA 2: GGGAAUGGAUCCACAUCUACGAAUUCGUACCAUAGAAGGUUACCGCUCACCGAGAUCGGAAGAGCACACGU	37.8 ± 3
